Test results as given in patent US20110159050A1, “AMPHIPHILIC PROTEINS AS MORPHOLOGY MODIFIERS” (BASF SE, priority 2008, published 2011).
“Also recorded” adds a separate entry of the source.

Experiments:
[1] = Crystallisation of benzamide in presence of SC, PO, TT or TR (cooling, visual assessment); type: physicochemical; details: 100 ppm protein
Experimental: (§1) 15 g of benzamide (Fluke) are dissolved in 150 mL pure water. Aliquots of 10 mL of the resulting solution are transferred into 15 mL sealable polypropylene tubes that have been pre-heated to 95° C. in order to prevent the onset of crystallization. To assure uniform temperature, the tubes are shaken for 15-30 min at 95° and 750 rpm on a thermomixer (Eppendorf Thermomixer Comfort), then 100 μL of the hydrophobin solution (prepared according to the method given in example 1) is added (the tubes are still shaken to allow homogeneous mixing and tempering). After 1-2 min the tubes are withdrawn from the thermomixer to allow cooling without shaking at RT. Control samples are treated in the same way except that 100 μL of pure water are added instead of the hydrophobin solution, or no API is present.
(§2) The results of a visual assessment after the hydrophobin injection (final concentration in the sample is 100 ppm) are compiled in the following table.

[2] = Atorvastatin crystallisation by evaporation on protein-coated object slides; type: physicochemical; details: object slides coated with protein (100 μg protein/mL over night), vs non-coated control
Experimental: b) In a further set of tests, object slides are coated with protein by incubation in a solution as prepared according to the method given in example 1 (100 μg protein/mL) over night. The object slides then are washed and air dried before 50 μL of Atorvastatin solution as described above is coated on the slide.

[3] = from 72; at 50 microgram/ml; cited from earlier work
[4] = Crystallisation of Atorvastatin by evaporation in dishes, microscopic inspection; type: physicochemical; details: Atorvastatin in water/acetonitrile, 100 ppm hydrophobin, vs hydrophobin-free control
Experimental: a) 15 g of Atorvastatin (Ciba) are dissolved in 75 mL pure water and 75 mL acetonitrile by heating to 50° C. and stirring for 2 h. The resulting solution is filtered (0.45 μm). Aliquots of 10 mL are transferred into 15 mL sealable polypropylene tubes that have been pre-heated to 50° C. in order to prevent the onset of crystallization. To assure uniform temperature, the tubes are shaken for 15-30 min at 50° and 750 rpm on a thermomixer (Eppendorf Thermomixer Comfort), then 100 μL of the protein solution (prepared according to the method given in example 1) is added (final concentration: 100 ppm). Control samples are treated in the same way except that 100 μL of pure water are added instead of the hydrophobin solution, or no API is present.
1 mL of each sample is poured into dishes (Ø5 cm) in order to allow crystallization by evaporation. The dried crystals (˜20 h later) are microscopically inspected.

[5] = Crystallisation of paracetamol in presence of hydrophobins (cooling from 95° C. to RT, visual assessment); type: physicochemical; details: 100 ppm protein; for visual assessment after 0 min (protein without API; no clouding = no denaturation): no API present, 95° C.; for visual assessment after 0 min / visual assessment <5 min: paracetamol present; for visual assessment after 0 min: after injection at 95° C.; for visual assessment <5 min: cooling at RT
Experimental: The hydrophobin solution is prepared by solubilization of 10 mg of lyophilized powder (protein content at least 60-80%) in 1 mL pure water. Insoluble residues are removed by centrifugation.
as §1, with “API (Paracetamol, Sigma)” for “benzamide (Fluke)”, “ensure” for “assure”, “solution” for “solution (prepared according to the method given in example 1)”, “under continued” for “(the tubes are still shaken to allow homogeneous”, “at 95° C.; final protein concentration in the sample is 100 ppm.” for “and tempering).”

[6] = Crystallisation and redispersion of Venlafaxine (IPA, visual assessment); type: physicochemical; details: for re-suspension on pouring after vigorous shaking (Vortex) for 10-15 sec: Venlafaxine crystallized over night; for (RT) dispersability: Venlafaxine crystals
Experimental: 15 g of Venlafaxine (Ciba) are dissolved in 150 mL IPA. Aliquots of 10 mL of the resulting solution are transferred into 15 mL sealable polypropylene tubes that have been pre-heated to 95° C. To assure uniform temperature, the tubes are agitated for 15-30 min at 80° and 750 rpm on a thermomixer (Eppendorf Thermomixer Comfort), then 100 μL of the protein solution (prepared according to the method given in example 1) is added. Control samples are treated in the same way except that 100 μL of pure water are added instead of the hydrophobin solution, or no API is present.
as §2
The mother liquor crystallizes completely over night, with crystals adhering together covered by the solvent.

[7] = Venlafaxine in IPA, 100 ppm protein

| Molecule | crystal size 15 min [1] | crystal size <5 min [1] | crystal size >20 h [1] | visual assessment <5 min [1] | visual assessment after 0 min [1] | crystal growth by evaporation on coated glass surface [2] | crystal growth after crystallization by evaporation [4] | visual assessment after 0 min (protein without API; no clouding = no denaturation) [5] | visual assessment after 0 min [5] | visual assessment <5 min [5] | crystal size 15 min ([5]; paracetamol) | crystal size >20 h ([5]; paracetamol) | re-suspension on pouring after vigorous shaking (Vortex) for 10-15 sec [6] | (RT) dispersability [6] | visual assessment 120 min [6, 7] | visual assessment after 0 min [6, 7] | other results |
| --- | --- | --- | --- | --- | --- | --- | --- | --- | --- | --- | --- | --- | --- | --- | --- | --- | --- |
| SC: class I hydrophobin from Schizophyllum commune, produced recombinantly in E. coli (protein, UniProt P16933 25-136, looked up, recombinant in E. coli) Class I hydrophobin SC3: GGHPGTTTPPVTTTVTVTTPPSTTTIAAGGTCTTGSLSCCNQVQSASSSPVTALLGLLGIVLSDLNVLVGISCSPLTVIGVGGSGCSAQTVCCENTQFNGLINIGCTPINIL | crystals 0.1-0.2 mm | 0.1-0.2 mm | crystals 0.5-1 mm | few crystals | clouding | more regular crystal growth; also recorded: more evenly crystal growth | more evenly crystal growth | clear | streaks | clear | cryst. 0.1-0.2 mm | crystals 0.5 mm | complete emptying of the tubes | Best dispersability and best | crystals | streaks | maximal lowering of the water surface tension [3]: 24 mJ m^−2; visual assessment 20 min [6, 7]: clear; visual assessment <5 min [6, 7]: clear |
| PO: class I hydrophobin from Pleurotus ostreatus, produced recombinantly in E. coli (protein, UniProt O60048 22-113, looked up, recombinant in E. coli) Class I hydrophobin POH3: IPRTNPPAPTCTTGSLQCCNSVQAASNPVVGLLAGLLGIVLGPITGQVGLTCSPITVIGVGGTSCSAQTVCCNGNSFNGLIVVGCSPVNISL | crystals 0.2-0.5 mm | 0.2-0.5 mm | crystals 0.5-1 mm | few crystals | clouding | more regular crystal growth; also recorded: more evenly crystal growth | more evenly crystal growth | clear | clouding | few crystals | cryst. 0.2-0.5 mm | crystals 0.5-1 mm | predominantly the remaining mother liquor is poured out | poor | crystals | clouding | crystal size <5 min ([5]; paracetamol): 0.2-0.5 mm; crystal size 20 min [6, 7]: crystals 0.2 mm; crystal size <5 min [6, 7]: crystals 0.1 mm |
